The subject of test [1] is phosphorylation of ERK1/2 (MAPK pathway). Kind of test: Western blot of phospho-ERK normalized to total ERK1/2 in differentiating ES cells. It counts as cell-based, mouse. The following applies: Western blot, FIGS. 14 and 18. The method, then:
(§1) Heparinase III (Hep-III) was prepared as described previously (Godavarti, R., et al. (1996) Biochemistry 35, 6846-52). Heparinase I (Hep-I) was a generous gift of Momenta Pharmaceuticals (Cambridge, Mass.). Sodium chlorate and heparin were purchased from Sigma and Cambrex BioWhittaker (East Rutherford, N.J.), respectively. To enzymatically modify the HSGAG glycome signature of the cells, cells were washed with phosphate buffer saline (PBS) and incubated with Hep-I or Hep-III for 30 minutes every day at 37° C. in serum free DMEM. Digested HSGAG residues were removed by washing the cells, and cells were then fed with fresh media. In an additional experiment, cells were cultured with medium containing sodium chlorate, which blocks the sulfation of HSGAGs. In a reversal experiment, heparin was added to the culture to overcome the chlorate induced synthetic block. Treated cells were analyzed for differentiation into endothelial cells between day 3 and day 15. Hep-III was added to the cells at a concentration of 2.5 μg/mL, Hep-I was added at a concentration of 1.5 μg/mL, sodium chlorate at 10 mM and heparin (20 μg). The concentrations of enzymes were optimized to exhaustively cleave all cell surface HSGAGs in the given period of time. All enzymes and chemicals were diluted in serum free DMEM.
For elucidating the biochemical pathways involved downstream of the modulation of the cell surface sugars, protein contents of the embryoid bodies were solubilized by rapid mixing with 3× SDS sample buffer under reducing conditions. Equivalent amounts of protein per sample were electrophoretically resolved on 4-12% gradient polyacrylamide gels and transferred onto a nitrocellulose (0.22 μm) membrane. The membrane was subsequently probed with a phosphor-ERK antibody (1:800 dilution, Cell Signaling Technologies, Danvers, Mass.), which specifically detects the phosphorylated forms of ERK1 and 2. The signal was amplified using a 1:2000 dilution of the appropriate horseradish peroxidase-conjugated secondary antibody (BioRad, Hercules, Calif.), and the immunocomplexes were visualized using enhanced chemiluminescence detection (Amersham Life Science, Piscataway, N.J.). The signal was normalized to the expression of total ERK1/2, which was detected on the same blot using ERK1/2 specific antibodies (Santa Cruz, Santa Cruz, Calif., used at a 1:200 dilution). Quantification of the luminescence signal was carried out by a Kodak 2000R imager.
The MAPK pathway is the downstream convergence point of the signaling of several angiogenic factors such as VEGF, FGF, HGF, EGF, PDGF and angiopoietins (Sengupta, S., et al. (2003) Arterioscler Thromb Vasc Biol 23, 69-75). […]
Background: In western blotting, separated proteins are transferred to a membrane and probed.

The subject of test [2] is differentiating ES cells (J1). The test is described as follows: Real-time PCR of Oct-4, VEGF-R2, VE-cadherin and eNOS transcripts in differentiating ES cells. The class given is cell-based, mouse. The following applies: real-time PCR, FIG. 19. The procedure: Mouse embryonic stem cells (J1) (gift from Bevin Engelward, Mass. Institute of Technology, Cambridge, Mass.) were grown in DMEM with 2 mM L-glutamine (GIBCO, Carlsbad, Calif.) adjusted to contain […] sodium pyruvate, 10 mM nonessential amino acids and 1.5 g/L sodium bicarbonate, with 15% fetal bovine serum (Hyclone, South Logan, Utah) and supplemented with 100 units/mL penicillin G (Sigma, St. Louis, Mo.), 100 μg/mL streptomycin sulfate (Sigma), 30 mM beta-mercaptoethanol (Sigma) and 1000 units/ml murine leukemia inhibitory factor, LIF (Chemicon, Temecula, Calif.). The cells were plated in 10 cm^2 cell culture dishes, coated with 0.1% gelatin B (Sigma) and grown at 37° C. in a 5% CO2 humidifier incubator. The culture medium was changed every 2 days. The cells were subcultured at a split ratio of 1:10 when they reached 80% to 90% confluency, using a 0.25% trypsin-EDTA solution (Sigma). To induce formation of embryoid bodies and differentiation into endothelial cells, J1 cells were plated at a density of 1.25×10^5 cells/100 mm dish, or 3×10^4 cells/6 wells and cultured in the absence of LIF. Fresh media was replenished every 2 days.
as §1
RNA was isolated from J1 cells using TRIzol (Invitrogen, Carlsbad, Calif.) and RNAlater (Qiagen, Valencia, Calif.) according to the manufacturer's protocol. Single-stranded cDNA was generated via oligo-dT primed reverse transcription, and genes serving as markers for differentiation were quantified using an Abi Prism 7700 real-time PCR thermocycler (Applied Biosystems, Foster City, Calif.). Expression levels were obtained for the marker genes Oct-4, VE-cadherin, VEGF-R2, and eNOS, with β-actin used as a control. PCR conditions involved denaturation for 10 min at 95° C., followed by 40 cycles of denaturation for 20 sec at 94° C., and annealing and extension for 1 min at 60° C. cDNA isolated from J1 cells and primers for the described genes were mixed with SYBR Green PCR Mastermix (Applied Biosystems) for real-time quantification according to the manufacturers instructions. Primers used were 5′-[…]-3′ (SEQ ID NO: 1) and 5′-[…]-3′ (SEQ ID NO: 2) for Oct-4; 5′-[…]-3′ (SEQ ID NO: 3) and 5′-[…]-3′ (SEQ ID NO: 4) for VE-cadherin; 5′-[…]-3′ (SEQ ID NO: 5) and 5′-[…]-3′ (SEQ ID NO: 6) for TIE-2; 5′-[…]-3′ (SEQ ID NO: 7) and 5′-[…]-3′ (SEQ ID NO: 8) for VEGF-R2; 5′-[…]-3′ (SEQ ID NO: 9) and 5% […]-3′ (SEQ ID NO: 10) for ENOS; 5′-[…]-'3 (SEQ ID NO: 11) and 5′-[…]-'3 (SEQ ID NO: 12) for 13-actin. The sulfotransferase primers and conditions were chosen. […]
In general terms: In qPCR the cycle at which signal appears reflects the starting amount.

The text below walks through data of patent US20100119494A1, “METHODS AND COMPOSITIONS RELATED TO MODULATING THE EXTRACELLULAR STEM CELL ENVIRONMENT” (Massachusetts Institute of Technology, priority 2005, published 2010).

Consider `[O-][Cl+2]([O-])O` [sodium chlorate, reference compound], for which the “phosphorylation of ERK1/2” value in test [1] was “inhibits”. Moreover, in test [2], the Oct-4 transcript levels result is given as “no effect”, the VE-cadherin transcript levels result is given as “significantly decreased” and the eNOS transcript levels result is reported as “significantly decreased”.

B1: Hep-I: HSGAG-degrading enzyme; cleaves HSGAGs at highly sulfated regions; gift of Momenta Pharmaceuticals (protein, UniProt Q05819 22-384, looked up)
Heparin lyase I: QQKKSGNIPYRVNVQADSAKQKAIIDNKWVAVGINKPYALQYDDKLRFNGKPSYRFELKAEDNSLEGYAAGETKGRTELSYSYATTNDFKKFPPSVYQNAQKLKTVYHYGKGICEQGSSRSYTFSVYIPSSFPDNATTIFAQWHGAPSRTLVATPEGEIKTLSIEEFLALYDRMIFKKNIAHDKVEKKDKDGKITYVAGKPNGWKVEQGGYPTLAFGFSKGYFYIKANSDRQWLTDKADRNNANPENSEVMKPYSSEYKTSTIAYKMPFAQFPKDCWITFDVAIDWTKYGKEANTILKPGKLDVMMTYTKNKKPQKAHIVNQQEILIGRNDDDGYYFKFGIYRVGNSTVPVTYNLSGYSETAR
Take B1: the “phosphorylation of ERK1/2” value in test [1] is “inhibits”. In addition, in test [2], the Oct-4 transcript levels entry is recorded as “no effect”, the VE-cadherin transcript levels entry is listed as “significantly decreased” and the eNOS transcript levels result is reported as “significantly decreased”.

B2: Hep-III: HSGAG-degrading enzyme; cleaves HSGAGs at undersulfated regions (protein, UniProt Q59289 25-659, looked up)
Heparin-sulfate lyase: QSSSITRKDFDHINLEYSGLEKVNKAVAAGNYDDAAKALLAYYREKSKAREPDFSNAEKPADIRQPIDKVTREMADKALVHQFQPHKGYGYFDYGKDINWQMWPVKDNEVRWQLHRVKWWQAMALVYHATGDEKYAREWVYQYSDWARKNPLGLSQDNDKFVWRPLEVSDRVQSLPPTFSLFVNSPAFTPAFLMEFLNSYHQQADYLSTHYAEQGNHRLFEAQRNLFAGVSFPEFKDSPRWRQTGISVLNTEIKKQVYADGMQFELSPIYHVAAIDIFLKAYGSAKRVNLEKEFPQSYVQTVENMIMALISISLPDYNTPMFGDSWITDKNFRMAQFASWARVFPANQAIKYFATDGKQGKAPNFLSKALSNAGFYTFRSGWDKNATVMVLKASPPGEFHAQPDNGTFELFIKGRNFTPDAGVFVYSGDEAIMKLRNWYRQTRIHSTLTLDNQNMVITKARQNKWETGNNLDVLTYTNPSYPNLDHQRSVLFINKKYFLVIDRAIGEATGNLGVHWQLKEDSNPVFDKTKNRVYTTYRDGNNLMIQSLNADRTSLNEEEGKVSYVYNKELKRPAFVFEKPKKNAGTQNFVSIVYPYDGQKAPEISIRENKGNDFEKGKLNLTLTINGKQQLVLVP
For the molecule B2, the “phosphorylation of ERK1/2” value in test [1] was “inhibits”. In test [2], the Oct-4 transcript levels entry is on record as “no effect”, the VE-cadherin transcript levels result is on record as “decreased” and the eNOS transcript levels entry is reported as “decreased”.
